Consider one compound from PMC5765332, “Evaluation of the Possible Utilization of ^68Ga-DOTATOC in Diagnosis of Adenocarcinoma Breast Cancer” (Asia Oceania Journal of Nuclear Medicine and Biology, 2018).

The nature of data set [1]: in vivo. Further details: species or system BALB/c mice. The note with it: female, BALB/c, mouse, iv, 5.55 MBq, total radioactivity. The procedure:
A few BALB/c mice that previously injected with spontaneous Murine Mammary Adenocarcinoma Cells (MMAC) which has been histopathologically approved for invasive ductal carcinoma, grade II/III, ([18]) were provided from Pasteur Institute, Tehran, Iran. These mice breast tumor model were used for development of the tumor allograft in other healthy Balb/c mice. For this purpose, the tumor allograft development was performed according to the previously reported procedure ([19]). Adenocarcinoma breast tumors of the mice were brought out and divided to 2–3 mm^3 segments. These segments were implanted percutaneously in the right side of the flank of inbred female BALB/c mice (16–25 g, 6–8 weeks old, Pasteur Institute, Tehran, Iran). 24-31 days post implantation, the tumor volume reached 70–80 mm^3. 5.55 MBq of final ^68Ga-DOTATOC solution was injected intravenously into the mice through their tail veins. Static PET images were captured for 10 min with three sets of emission images starting 30, 60 and 120 min post injection. In addition, PET emission scans were preceded by CT scans performed for anatomical reference and attenuation correction (spatial resolution 1.25 mm, 80 kV, 150 mAs) with a total CT scanning time of 20 s. Reconstruction was performed using the iterative algorithm with attenuation correction. The reconstruction settings were 4 iterations and 21 subsets to a 256×256 matrix, with a post-filtering of 2 mm. Transmission data were reconstructed within a matrix of equal size by means of filtered back-projection, yielding a co-registered image set. The reconstructed emission images were reformatted into coronal, sagittal and maximum intensity projection (MIP) image sets. Maximum, average and minimum standardized uptake values (SUV) for the observable organs in the images were calculated based on the region of interest (ROI) and according to Eq. 1: where C is the tissue radioactivity concentration (kBq/mL), I is the decay-corrected amount of injected radiolabeled complex [kBq], and w is the weight (g).

Data set [2] can be described thus: in vivo. Further details: species or system BALB/c mice. The note with it: female, BALB/c, mouse, iv, 5.55 MBq, total radioactivity. The procedure: (§1) A few BALB/c mice that previously injected with spontaneous Murine Mammary Adenocarcinoma Cells (MMAC) which has been histopathologically approved for invasive ductal carcinoma, grade II/III, ([18]) were provided from Pasteur Institute, Tehran, Iran. These mice breast tumor model were used for development of the tumor allograft in other healthy Balb/c mice. For this purpose, the tumor allograft development was performed according to the previously reported procedure ([19]). Adenocarcinoma breast tumors of the mice were brought out and divided to 2–3 mm^3 segments. These segments were implanted percutaneously in the right side of the flank of inbred female BALB/c mice (16–25 g, 6–8 weeks old, Pasteur Institute, Tehran, Iran). 24-31 days post implantation, the tumor volume reached 70–80 mm^3. 100 μL of the radiolabeled complex with approximately 5.55 MBq radioactivity was injected intravenously into the BALB/c mice with adenocarcinoma breast cancer through their tail vein. The total amount of radioactivity injected into each animal was measured by counting the 1-mL syringe before and after injection in a dose calibrator with the fixed geometry. Biodistribution of the complex among tissues was determined by sacrificing the BALB/c mice at each selected time (15, 30 and 60 m) after injection using the animal care protocols. Blood samples were rapidly taken after scarification. The tissues (heart, kidneys, spleen, stomach, intestine, lung, liver, skin, bone, muscle, adrenal, pancreas and tumor) were weighed and rinsed with normal saline and their activities were determined with a p-type coaxial HPGe detector coupled with a multichannel analyzer. The percentage of injected dose per gram (%ID/g) for different organs was calculated by dividing the activity amount of each tissue (A) to the decay-corrected injected activity and the mass of each organ. Four […] were considered for each time interval. All values were expressed as mean ± standard deviation (Mean±SD) and the data were compared using Student’s T-test. P values of < 0.05 were considered statistically significant.
This is another data set of the same source.

In data set [3] the test system is BALB/c mice with adenocarcinoma breast cancer. Nature of the data set: in vivo. The note with it: mouse, iv. The procedure:
as §1

As to `C[C@@H](O)[C@@H]1NC(=O)[C@H](CCCCN)NC(=O)[C@@H](Cc2c[nH]c3ccccc23)NC(=O)[C@H](Cc2ccc(O)cc2)NC(=O)[C@@H](NC(=O)[C@@H](Cc2ccccc2)NC(=O)CN2CCN(CC(=O)O)CCN(CC(=O)O)CCN(CC(=O)O)CC2)CSSC[C@@H](C(=O)N[C@H](CO)[C@@H](C)O)NC1=O` [^68Ga-DOTATOC, metal not drawn], in “in vivo [1]”, the SUV at 0.5 h stood at 0.66 SUV, the SUV at 1 h was 0.28 SUV and the SUV at 2 h came out at 0.18 SUV. Further, in the data set “in vivo [2]” (Tumor/blood ratio), the tissue to tissue ratio at 0.25 h stood at 2.38, the tissue to tissue ratio at 0.5 h amounted to 3.37 and the tissue to tissue ratio at 1 h was 9.92. Also, in “in vivo [2]” (Tumor/muscle ratio), the tissue to tissue ratio at 0.25 h was 18.7, the tissue to tissue ratio at 0.5 h was determined as 20.8 and the tissue to tissue ratio at 1 h was found to be 19.8. Moreover, in data set [3], the “blood clearance (in words)” value is “fast blood clearance”.
